The results in this text go back to article PMC5913134, “The IL-33-PIN1-IRAK-M axis is critical for type 2 immunity in IL-33-induced allergic airway inflammation” (Nature Communications, 2018).

Experiment [1] relates to IRAK-M. Nature of the experiment: IRAK-M phosphorylation in DC2.4 cells. In kind it is cell-based, C57BL/6. As to conditions: DC2.4; IL-33 100 ng/ml, 1 h, γ-32P labeling. The method, then:
Fig. 2 IL-33 induces IRAK-M phosphorylation and binding to PIN1. a GST PIN1 pulldown assay with DC2.4 cell extracts either non-treated or treated with IL-33 (100 ng/ml) or LPS (100ng/ml) for 1 h. […] The cells were washed with fresh medium and treated with 100 ng/ml IL-33 for the indicated times prior to IRAK-M immunoprecipitation. d DC2.4 cells stably expressing IRAK-M were treated with IL-33 and at the indicated time points were subjected to CO-IP using anti-PIN1 antibody and blotted for IRAK-M. e HEK293 cells were transfected with different IRAK-M constructs expressing the N’ terminal domain (aa1-220), the middle portion of the protein (aa220-440) or the C’ terminal domain (aa 440-630), and then treated with IL-33, followed by CO-IP for PIN1. f DC2.4 cells stably expressing IRAK-M were treated with IL-33 and subjected to GST or GST-PIN1 pull-down.

In experiment [2] the test system is naive CD4^+ cells co-cultured with BMDCs. Description: BMDC / naive CD4+ T cell co-culture TH2 polarization, IL-5 and IL-13 secretion. In kind it is cell-based, C57 B6 mice. The note with it: WT BMDC + naive CD4+ T cells, IL-33 50 ng/ml, 5 days. The method, then: Supplementary Figure 7. IRAK-M KO or Pin1 KO derived bone marrow dendritic cells attenuates Naïve TH2 cell differentiation upon IL-33 induction in co culture experiment. Naïve CD4+ T cells isolated from C57 B6 mice were cultured with or without IL-33 (50ng/ml) and BMDCs isolated from WT, IRAK-M KO (a) or Pin1 KO mice (b) in a 1:5 ratio for 5 days with no antigen being added. In some cases as indicated 5 µM of ATRA was added to the medium two days prior to T cell co culturing and during the experiment. Supernatants were analyzed for cytokines on day 5. The data were analyzed by a Student's two-tailed t test and the values are reported as mean ± standard errors of the means (SEM). *- statistical significance (P<0.05), **- significance (P<0.01).

Experiment [3] has as its system CD3+ CD4+ T cells. Nature of the experiment: Lung CD3+ CD4+ T cells after IL-33 challenge. In kind it is in vivo, mouse. The note with it: IL-33 intranasal, sorted lung T cells, n=3. The procedure: Lungs were digested using Kollagenase D and dispase and the dendritic cells populations (CD11c^+ CD205^+ CD11b^+) were determined by staining the cells using the following antibodies: PE anti mouse CD11c (catalog number 117307), APC anti mouse CD205 (catalog number 138205), FITC anti mouse CD11b (catalog number 101205). For co stimulatory protein expression, FITC anti mouse CD40 (catalog number 124607), FITC anti mouse CD80 (catalog number 104705), FITC anti mouse CD86 (catalog number 105005) were used. […] Cells were analyzed using LSRII flow cytometer and FlowJo software. […]
Supplementary Figure 6. […] ( b) The indicated lungs were digested and the CD3+ CD4+ cells were monitored and cell sorted using APC-CD3 and FITC-CD4 antibodies respectively, for further analysis. […] (c) Sorted CD3+ CD4+ cells from the indicated mice after PBS and IL-33 challenge were analyzed for IL-13 and IL-5 expression (n=3).
(d) Quantification of figure 6E; Dendritic cell CD11b+ expression in WT, Pin1KO and IRAK-M KO mice lungs, either treated with IL-33 or PBS as before. (e) WT and IRAK-M KO mice were either treated with IL-33 or PBS, the lungs were digested and the CD11c+ cells were analyzed for the expression of costimulatory proteins CD40, CD80 and CD86. […]

Experiment [4] concerns Il6, Csf3, Cxcl2 and Ccl5 expression in DC2.4 cells. Nature of the experiment: qRT-PCR of Il6, Csf3, Cxcl2 and Ccl5 in DC2.4 cells. As to conditions: IL-33, pLKO control DC2.4 cells. It is filed as cell-based, C57BL/6. On the technique in general: In qPCR the cycle at which signal appears reflects the starting amount.
Method: Also as indicated, some cells were pretreated for 3 days with 5 μM or 10 μM of ATRA before IL-33 induction. e Relative gene expression of Il6, Csf3, Cxcl2 and Ccl5 in the different samples as in d normalized to actin. f IRAK-M was stably expressed in pLKO or TET on shPin1 expressing cells, followed by induction with IL-33, before western blot to examine protein expression of IRAK-M, PIN1 and tubulin as well as g qRT-PCR to determine the relative gene expression for Il6, Csf3, Cxcl2 and Ccl5 in the different samples.
SYBR Green PCR Master Mix (Applied Biosystems, Foster City, CA) was used for two-step real-time RT-PCR analysis on an Applied Biosystems StepOnePlus Real Time PCR instrument. […] Expression value of the targeted gene in a given sample was normalized to the corresponding expression of Actin. The 2^–ΔΔCt method was used to calculate relative expression of the targeted genes.
Experiment [5] deals with IRAK-M. Nature of the experiment: IRAK-M nuclear localization in DC2.4 cells. It is filed as cell-based, C57BL/6. The note with it: DC2.4 cells, after IL-33 induction. The method, then:
Suppl em enta ry Figur e 3. a DAPI IR AK-M Pin1 Mergeb […]
Supplementary Figure 3. Pin1 targets IRAK-M and promotes its nuclear translocation upon IL-33 induction.
(a) Immunostaining for IRAK-M and Pin1 in DC2.4 cells before and after IL-33 treatment. ( b) DC2.4 cells were treated with IL-33 and subjected to nuclear/cytoplasmic fractionation, followed by Western blot for IRAK-M with actin as a cytoplasmic marker and Fox1 as a nuclear marker. C- cytoplasmic; N- Nuclear.
(c) Cytospin slides from BALF of the treated WT mice as indicated, were co stained for DC205 and IRAK-M.
(d) IRAK-M or its mutants S110E or P111A were stably expressed in DC2.4 cells and their localization and Pin1 localization were monitored by immunostaining. (e) GFP-IRAK-M were expressed in Pin1 KO MEFs either with or without RFP-Pin1 as indicated, and their localization was monitored. Scale = 50 µm.
(also on this page, place not known: Control +IL-33: b DAPIe MergeGFP RFP GFP- GFP-IRAK-M/ RFP MergeIRAK-M Pin1DAPI ControlIL-33 Mergec Supplementary Figure IRAK-M IRAK-M (b) IL-33 IRAK-M IRAK-M Pin1) […]

Experiment [6] concerns IRAK-M. Nature of the experiment: IRAK-M protein levels in BMDCs. It is filed as cell-based, mouse. The note with it: BMDC from WT and PIN1 KO mice, IL-33, time-dependent.

B1: IL-33: Recombinant mouse IL-33 purchased from BioLegend (protein, UniProt Q8BVZ5 1-266, looked up)
Interleukin-33: MRPRMKYSNSKISPAKFSSTAGEALVPPCKIRRSQQKTKEFCHVYCMRLRSGLTIRKETSYFRKEPTKRYSLKSGTKHEENFSAYPRDSRKRSLLGSIQAFAASVDTLSIQGTSLLTQSPASLSTYNDQSVSFVLENGCYVINVDDSGKDQEQDQVLLRYYESPCPASQSGDGVDGKKLMVNMSPIKDTDIWLHANDKDYSVELQRGDVSPPEQAFFVLHKKSSDFVSFECKNLPGTYIGVKDNQLALVEEKDESCNNIMFKLSKI
As for B1, the IRAK-M phosphorylation entry in experiment [1] was “IRAK-M was phosphorylated”. Further, in experiment [2], the “IL-5 and IL-13 secretion” value was “high levels of IL-5 and -13”. In addition, the “Il13 and -5 expression in CD3+ CD4+ T cells” value in experiment [3] is given as “markedly induced expression”. The “expression of the four target genes” value in experiment [4] is listed as “upregulated”. The IRAK-M nuclear localization entry in experiment [5] was “also evident in the nucleus”. In addition, the IRAK-M protein levels result in experiment [6] is listed as “increased IRAK-M protein levels in WT, but not PIN1 KO cells”.
